Results reported in the supplement of paper PMC12764529.
± gives the half width of the 95% confidence interval.

How the values were obtained:
[1] = folding stability dG unfold from trypsin proteolysis; higher = more stable
Method in brief: (§1)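 Only designs with AlphaFold2 dimer inter-PAE above 15 were retained; each was a mini-protein under 80 residues with no cysteine, in a PA-tagged cDNA display construct. After digestion with trypsin and chymotrypsin and sequencing, K50 was inferred by Bayesian fitting of counts, and unfolding free energy was derived per protease or combined against a sequence-predicted unfolded-state K50 and a shared folded-state K50.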

[2] = folding stability dG unfold from chymotrypsin proteolysis; higher = more stable
Method in brief: as §1

[3] = folding stability dG unfold (combined trypsin and chymotrypsin); higher = more stable
Method in brief: as §1

Sequence | folding stability dG unfold [1] | folding stability dG unfold [2] | folding stability dG unfold [3]
SAGGSAGGSAGGMKIVFLGKKALIENENGEVTEIPVGSLEEFEKLAEAFPDYEAVPAVPSAGGSAGGSAGGS [r10_1211_TrMRF] | 0.888 ± 0.025 kcal/mol | 1.5 ± 0.029 kcal/mol | 1.31 ± 0.051 kcal/mol
SAGGSAGGSAGGMKKKIPNKTLTIEIEVKLENGLYLKMKITVNKNGEIKIEIEVIPKEDLSAGGSAGGSAGG [r7_214_TrROS_Hall] | 2.57 ± 0.12 kcal/mol | 3.33 ± 0.073 kcal/mol | 3.08 ± 0.14 kcal/mol
SAGGSAGGSAGGMKKYKITVYDEKTGEKHTIEIEMSEEELEELAKKLAEKHNVKVRIEKVSAGGSAGGSAGG [r7_562_TrROS_Hall] | 2.73 ± 0.095 kcal/mol | 4.27 ± 0.052 kcal/mol | 3.91 ± 0.062 kcal/mol
SAGGSAGGSAGGMKTIEITNADGSKATAELLPDGWVKIYFEETGEEKTLPAKDLTITPPSAGGSAGGSAGGS [r10_289_TrROS_Hall] | 0.423 ± 0.038 kcal/mol | 0.5 ± 0.013 kcal/mol | 0.466 ± 0.05 kcal/mol
SAGGSAGGSAGGMKTIVLPNVTPEEAEALAAELEKKYPGRTVNVTYVPENPTTVVITVGSAGGSAGGSAGGS [r10_852_JUSTAS] | 2.21 ± 0.085 kcal/mol | 2.54 ± 0.12 kcal/mol | 2.41 ± 0.087 kcal/mol
SAGGSAGGSAGGMKTIVVPKDELEKLKEELEKKGKKVETSEDGTWTVDGKPVKVVVEPGSAGGSAGGSAGGS [r10_930_JUSTAS] | 0.352 ± 0.062 kcal/mol | 0.731 ± 0.032 kcal/mol | 0.594 ± 0.1 kcal/mol
SAGGSAGGSAGGMKVERVEVVELPNGQRVLTRTLEVVPPDGSSRVLETEVRFYPPDEALLSAGGSAGGSAGG [r7_917_JUSTAS] | -0.666 ± 0.38 kcal/mol | 0.291 ± 0.06 kcal/mol | 0.0413 ± 0.065 kcal/mol
SAGGSAGGSAGGMKYTIKVTTTYPDGTVTEYTFPSSVSKEEIIKELPSDVVDITFTETASSAGGSAGGSAGG [r7_288_JUSTAS] | 2.17 ± 0.066 kcal/mol | 2.17 ± 0.026 kcal/mol | 2.26 ± 0.04 kcal/mol
SAGGSAGGSAGGMLALIYGKEKPILLSAEEILNNPELLKELEKKGYPIVKIEFFKEEELSAGGSAGGSAGGS [r10_396_TrMRF] | 1.07 ± 0.049 kcal/mol | 0.478 ± 0.15 kcal/mol | 0.817 ± 0.097 kcal/mol
SAGGSAGGSAGGMLKIKVYRFDKNGKLVEEEEIELPENVKEIVIKDEKTGKYYKVEIVDSAGGSAGGSAGGS [r10_970_TrROS_Hall] | 1.25 ± 0.053 kcal/mol | 2.02 ± 0.11 kcal/mol | 1.76 ± 0.15 kcal/mol
SAGGSAGGSAGGMLKITITTPGEEREFVIPTPEPEPPGEEEVAKELGLEDVEVEVEEVLESAGGSAGGSAGG [r11_219_JUSTAS] | 0.118 ± 0.04 kcal/mol | -0.0518 ± 0.1 kcal/mol | 0.0103 ± 0.12 kcal/mol
SAGGSAGGSAGGMLKTKVTVDPTPDGVTRVTETTYDPSTGALVKTSTTIVVPGTGEVTAVSAGGSAGGSAGG [r7_804_JUSTAS] | -0.779 ± 0.18 kcal/mol | 1.04 ± 0.031 kcal/mol | 0.669 ± 0.062 kcal/mol
SAGGSAGGSAGGMMKTTITITLPPNSSKEEAEKIKEEGLPAEEIVVEKNPDGTRVVTILESAGGSAGGSAGG [r11_97_JUSTAS] | -0.915 ± 0.31 kcal/mol | 0.657 ± 0.051 kcal/mol | 0.237 ± 0.15 kcal/mol
SAGGSAGGSAGGMPDGAEFELEFEFELPDGYRVRLRIRARIGPDGVVEFEVEVEVYEVPDSAGGSAGGSAGG [r7_125_TrMRF] | 4.58 ± 0.15 kcal/mol | 5.13 ± 0.12 kcal/mol | 5.01 ± 0.13 kcal/mol
SAGGSAGGSAGGMPIKVEEYELPNGEKILKEISPEGVVKVYKVDPVNGKKEVIEVIPINKSAGGSAGGSAGG [r7_898_JUSTAS] | 0.446 ± 0.094 kcal/mol | 1.1 ± 0.073 kcal/mol | 1.01 ± 0.19 kcal/mol
SAGGSAGGSAGGMPILEIDVAGDSPDIAIETAKAIVDELPTYNPENVKVIIKDGKVIIGSAGGSAGGSAGGS [r10_182_TrMRF] | 0.498 ± 0.018 kcal/mol | 1.66 ± 0.12 kcal/mol | 1.25 ± 0.15 kcal/mol
SAGGSAGGSAGGMPVIEIPIRPDPNGKPRSAEEIASKIKDRFGYPVKIVSVENNHITITVSAGGSAGGSAGG [r17_426_TrROS] | 0.166 ± 0.076 kcal/mol | 0.983 ± 0.066 kcal/mol | 0.707 ± 0.18 kcal/mol
SAGGSAGGSAGGMPVTFTGENQPVEVLSVDPERPVVVVYYPPTGTLLVALPPTGKVFPVSAGGSAGGSAGGS [r10_440_TrMRF] | -0.867 ± 0.54 kcal/mol | 0.492 ± 0.15 kcal/mol | 0.18 ± 0.14 kcal/mol
SAGGSAGGSAGGMRVYEFDSEEEAQAFAEELRAAEPDVREVTIERDPETGKYRVTVVAESAGGSAGGSAGGS [r10_544_JUSTAS] | 4.24 ± 0.17 kcal/mol | 4.69 ± 0.091 kcal/mol | 4.62 ± 0.14 kcal/mol
SAGGSAGGSAGGMTIPLEFEFPDGRRLRITYHIEPSEDGLKITAEVEIEPIPEPPLPSDSAGGSAGGSAGGS [r10_1200_TrMRF] | 1.93 ± 0.14 kcal/mol | 3.64 ± 0.13 kcal/mol | 3.31 ± 0.26 kcal/mol
SAGGSAGGSAGGMTLTIPEEVLKKALEEGDEELLKEVVEKAGVKPEDTEVIAVTPEDLLESAGGSAGGSAGG [r7_7_JUSTAS] | 0.56 ± 0.072 kcal/mol | 0.919 ± 0.07 kcal/mol | 0.822 ± 0.12 kcal/mol
